Publication PMC3834821

Target: T1, GST-DAZAP1 (UniProt Q9JII5)
T1 sequence: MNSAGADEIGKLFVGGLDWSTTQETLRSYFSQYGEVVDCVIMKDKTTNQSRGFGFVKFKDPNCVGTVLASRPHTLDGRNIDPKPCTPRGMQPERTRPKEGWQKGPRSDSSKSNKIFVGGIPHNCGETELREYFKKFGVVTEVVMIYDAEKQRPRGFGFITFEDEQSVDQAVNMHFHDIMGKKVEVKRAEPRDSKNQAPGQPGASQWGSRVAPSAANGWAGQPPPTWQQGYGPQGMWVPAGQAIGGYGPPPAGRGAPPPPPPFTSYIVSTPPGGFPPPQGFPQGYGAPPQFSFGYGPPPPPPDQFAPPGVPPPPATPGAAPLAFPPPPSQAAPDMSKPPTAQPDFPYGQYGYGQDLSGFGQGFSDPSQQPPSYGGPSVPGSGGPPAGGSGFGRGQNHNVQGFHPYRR
Test: EMSA
Conditions: 20 mM HEPES pH 7.6, 3 mM MgCl2, 40 mM KCl, 2 mM DTT, 5% glycerol, 5 mg/ml heparin; room temperature, 15 min; native 5% PAGE in 0.25x TBE; RNA 0.5-3.0 nM for Kd

Row | Sequence | Kd [nM]
1 | AAGGUGAUAUUUAGUAUAUAGUGACAAUUUAUG [Pot1a-dA] | 7.04
2 | AAGGUGAUAUUUAGUAUAUAGUGACACGUAAACAUUUAUG [Pot1a-Wt] | 7.82
3 | AAGGUGAUAUUUAUGACACGUAAACAUUUAUG [Pot1a-dE] | 301
4 | AAGUGUGAUAUAAUUCACUAUAGAGGU [Crisp2-dB] | 81.8
5 | AAGUGUGAUAUAAUUCACUGGUAGUUUAUCAUAGAGGU [Crisp2-WtB] | 33.7
6 | ACCUCCUAAUGGUAAGUACCCUACUUGUUCUUCAUUUCUU [Crem-Wt] | 18.9
7 | ACCUCCUAAUUUGUUCUUCAUUUCUU [Crem-dA] | 169
8 | AUCAUAGAAUUUUAGUUUAUUCUGUGAACUUCAAAAUUGACU [Crisp2-dC] | 70.3
9 | AUCAUAGAGGUAGCAUUUUAGUUUAUUCUGUGAACUUCAAAAUUGACU [Crisp2-WtC] | 15.1
